Experimental data reported in article PMC8795569.

Target: HA-APP (full-length, APP695 spliced isoform), P05067
Assay: ELISA

- Kd: 84.7 nM
B1: MDGA1-Fc (MDGA1 extracellular domains fused to human Fc) (Fc fusion)
chain: QGVYAPAQAQIVHAGQACVVKEDNISERVYTIRESDTLVLQCLVTGHPRPQVRWTKTAGSASDKFQETSVFNETLRIERIARTQGGRYYCKAENGVGVPAIKSIRVDVQYLDEPVLTVHQTVSDVRGNFYQEKTVFLRCTVSSNPPARFIWKRGSDTLSHSQDNGVDIYEPLYTQGETKVLKLKNLRPQDYASYTCQVSVRNVCGIPDKSITFQLTNTTAPPTLKLSVNETLVVNPGENVTVQCLLTGGDPLPQLHWSHGPGPLPLGALAQGGTLSIPSVQARDSGYYNCTATNNVGNPAKKTVNLLVRSLKNATFQITPDMIKESENIQLGQDLKLSCHVDAVPQEKVNYQWFKNGKPARTSKRLLVTRNDPELPAVTSSLELIDLHFSDYGTYLCVASFPGSPVPDLSVEVNISSETVPPTISVPKGRAVVTVREGSPAELQCEVRGKPRPPVLWSRVDKEAALLPSGLALEETPDGKLRVERVSREMSGTYRCQTARYNGFNVRAREAQVQLTVHFPPEVEPSSQDVRQALGRPVLLRCSLLRGSPQRIASAVWRFKGQLLPPPPVLPAAAAEGPDHAELRLDALTRDSSGNYECSVSNDVGSATCLFQVSAKAYSPEFYFDTPNPTRSHKLSKNYSYVLQWTQREPDAVDPVLNYRLSIRQLNQHNAMVKAIPVRRVEKGQLLEYTLTDLRVPHSYEIHLTPYTTFGAGDMASRVIHYTEPINSPSLSDNTCHFEDEKICGYTQDLTDNFDWTRQNALTQNPKRSPNTGPPTDISGTPEGYYMFIETSRPRELGDRARLVSPLYNASAKFYCVSFFYHMYGKHIGSLNLLVRSRNKGTLDTHAWSLSGNKGNVWQQAHVPINPSGPFQIIFEGVRGSGYLGDIAIDDVTLKKGECPRRQMDPNKVVVMPGS
modifications: not checked
